From patent US20220127365A1

Key:
human CD94 (human) [1] = target: human CD94 (human) (UniProt Q13241); assay: HLA-E tetramer blocking on healthy-donor PBMC NK cells, flow cytometry; competitor HLA-E tetramer
human CD94 (human) [2] = target: human CD94 (human) (UniProt Q13241); assay: table column 'HLA-E blocking'; flow cytometry on NK cells of healthy donor PBMCs, antibody at saturating concentration, blocked ligand PE labeled HLA-E tetramer; percent blocking = 100-((percent HLA-E positive with antibody)/(percent HLA-E positive with isotype)*100)
human CD94 (human) [3] = target: human CD94 (human) (UniProt Q13241); assay: table column 'Affinity on human NK cells'; flow cytometry titration on human primary NK cells (the filing gives these affinities as EC50 of the titration curve)
human CD94 (human) [4] = target: human CD94 (human) (UniProt Q13241); assay: competition assay, flow cytometry on CD3-CD56+ NK cells of healthy donor PBMCs; labeled HP-3B1 titrated in the presence of 1E4 at 11 µg/ml
human CD94 (human) [5] = target: human CD94 (human) (UniProt Q13241); assay: competition assay, flow cytometry on CD3-CD56+ NK cells of healthy donor PBMCs; labeled HP-3B1 titrated, concurrently Human IgG1 control (or 18H3 at 1.3 µg/ml)
human CD94 (human) [6] = target: human CD94 (human) (UniProt Q13241); assay: competition assay, flow cytometry on NK cells of healthy donor PBMCs; labeled HP-3B1 titrated, concurrently Human IgG1 control

Sequence of human CD94 (human) (Q13241 whole entry): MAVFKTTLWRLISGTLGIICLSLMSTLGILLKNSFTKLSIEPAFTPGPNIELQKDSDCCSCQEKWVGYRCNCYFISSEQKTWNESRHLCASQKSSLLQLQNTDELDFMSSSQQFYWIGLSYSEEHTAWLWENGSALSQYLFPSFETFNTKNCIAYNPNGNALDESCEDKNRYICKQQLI

## anti-CD94 antibody clone DX22
Human CD94 (human) [1]
  percent HLA-E blocking: > 40%
Human CD94 (human) [2]
  HLA-E blocking: 99%
Human CD94 (human) [3]
  Affinity on human NK cells: 0.15 nM

## anti-CD94 antibody clone HP-3B1
Human CD94 (human) [4]
  EC50 (read off the curve): 2 nM
Human CD94 (human) [1]
  percent HLA-E blocking: > 40%
Human CD94 (human) [5]
  EC50 (read off the curve): 3 nM
Human CD94 (human) [2]
  HLA-E blocking: 99.8%
Human CD94 (human) [6]
  EC50 (read off the curve): 3 nM
Human CD94 (human) [3]
  Affinity on human NK cells: 3 nM
